Experimental data as given in US20260263364A1, “OSTEOCLAST-DERIVED MICROVESICLES AND METHODS OF PROMOTING BONE REGENERATION” (The United States Government as represented by the …, priority 2023, published 2026).

Test system: osteoclastic cells
Assay: Release of soluble EfnB2 into CM by osteoclastic cells (Western blots)
Type: cell-based
Description: Regarding the EfnB2, EfnB2 on the plasma membrane of osteoclasts binds the EphB4 receptor on the cell surface of nearby osteoprogenitors to trigger the EfnB2-EphB4 bidirectional signaling, which on the one hand suppresses osteoclastic resorption through activation of the reverse signaling of EfnB2 in osteoclasts and on the other hand upregulates the EphB4 forward signaling in osteoblasts to stimulate osteoblast maturation and activity. However, this bidirectional signaling mechanism requires direct cell-cell contact between osteoclasts and osteoprogenitors. Given the fact that very few osteoblasts or progenitors are present at the remodeling site that could make direct contact with the resorbing osteoclast, this cell-cell contact-dependent bidirectional mechanism is unlikely a major mechanism for the coupled bone formation under normal situations. It also could not be responsible for the soluble osteoanabolic activity of osteoclasts. […] Treatment with EfnA4-fc or PTH increased its releases each by ~75% and the large majority of the released EfnB2 was associated with the MV fraction. As an initial test of the possibility that EfnB2 is a candidate for an osteoanabolic component, it was tested whether the osteogenic activity of CM or that of MV could be blocked by pretreatment with anti-EfnB2 antibody. […]

B1: PTH: used to increase bone turnover / stimulate bone remodeling (protein, UniProt P01270 32-115, looked up)
Parathyroid hormone: SVSEIQLMHNLGKHLNSMERVEWLRKKLQDVHNFVALGAPLAPRDAGSQRPRKKEDNVLVESHEKSLGEADKADVNVLTKAKSQ
modifications: Parathyroid hormone
notes: used to increase bone turnover / stimulate bone remodeling
B1 was tested, and the “increase of release of soluble EfnB2” value was ~ 75%.
